Source: patent US20160200782A1 (MOERAE MATRIX, published 2016)

T1: SGK2(h) (human, UniProt Q9HBY8 1-367, limits assumed)
T1 sequence (looked up): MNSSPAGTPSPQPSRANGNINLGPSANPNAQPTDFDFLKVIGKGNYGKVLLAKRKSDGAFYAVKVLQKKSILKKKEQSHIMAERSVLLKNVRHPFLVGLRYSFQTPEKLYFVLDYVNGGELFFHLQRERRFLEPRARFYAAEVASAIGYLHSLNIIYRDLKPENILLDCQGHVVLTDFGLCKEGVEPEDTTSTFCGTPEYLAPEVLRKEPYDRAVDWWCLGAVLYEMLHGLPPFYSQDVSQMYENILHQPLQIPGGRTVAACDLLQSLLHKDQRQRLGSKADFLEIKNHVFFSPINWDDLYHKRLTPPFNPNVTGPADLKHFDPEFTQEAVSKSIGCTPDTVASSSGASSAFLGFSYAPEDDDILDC

T2: Ret(V804M)(h) (human, UniProt P07949 658-1114, limits assumed)
T2 sequence (looked up): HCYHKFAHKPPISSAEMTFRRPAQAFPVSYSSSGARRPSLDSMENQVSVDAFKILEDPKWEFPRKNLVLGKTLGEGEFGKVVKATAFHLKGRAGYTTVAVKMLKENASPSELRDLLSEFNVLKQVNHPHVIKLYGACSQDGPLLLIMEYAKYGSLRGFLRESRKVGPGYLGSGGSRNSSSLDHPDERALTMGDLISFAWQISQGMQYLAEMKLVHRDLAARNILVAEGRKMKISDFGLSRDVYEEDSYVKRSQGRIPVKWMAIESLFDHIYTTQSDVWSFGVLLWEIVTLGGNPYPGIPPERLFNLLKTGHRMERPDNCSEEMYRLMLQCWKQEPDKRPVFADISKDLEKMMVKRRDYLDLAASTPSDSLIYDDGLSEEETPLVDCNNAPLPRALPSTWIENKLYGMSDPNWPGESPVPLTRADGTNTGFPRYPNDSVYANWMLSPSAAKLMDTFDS

T3: BrSK1(h) (human, UniProt Q8TDC3 1-778, limits assumed)
T3 sequence (looked up): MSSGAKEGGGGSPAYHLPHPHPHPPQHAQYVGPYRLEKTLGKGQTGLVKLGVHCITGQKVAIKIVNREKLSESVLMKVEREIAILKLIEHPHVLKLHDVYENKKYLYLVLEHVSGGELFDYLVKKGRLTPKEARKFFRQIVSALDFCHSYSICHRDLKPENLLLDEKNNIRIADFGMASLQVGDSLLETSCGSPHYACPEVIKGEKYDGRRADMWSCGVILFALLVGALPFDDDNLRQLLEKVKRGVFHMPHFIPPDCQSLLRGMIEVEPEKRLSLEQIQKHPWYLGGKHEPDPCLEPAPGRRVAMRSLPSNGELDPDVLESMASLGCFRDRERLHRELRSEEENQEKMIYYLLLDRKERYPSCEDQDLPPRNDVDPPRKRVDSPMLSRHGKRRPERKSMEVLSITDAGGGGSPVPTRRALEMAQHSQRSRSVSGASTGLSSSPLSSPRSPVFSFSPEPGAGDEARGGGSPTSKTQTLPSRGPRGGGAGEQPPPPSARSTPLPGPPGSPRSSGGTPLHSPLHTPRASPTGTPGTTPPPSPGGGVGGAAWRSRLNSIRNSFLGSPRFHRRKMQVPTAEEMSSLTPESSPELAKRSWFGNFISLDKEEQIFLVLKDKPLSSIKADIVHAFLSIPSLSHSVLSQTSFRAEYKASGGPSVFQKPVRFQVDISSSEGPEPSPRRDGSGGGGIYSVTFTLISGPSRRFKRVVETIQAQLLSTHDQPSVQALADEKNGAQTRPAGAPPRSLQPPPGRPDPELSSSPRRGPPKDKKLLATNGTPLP

T4: Ax1(h) (human, UniProt P30530 473-894, limits assumed)
T4 sequence (looked up): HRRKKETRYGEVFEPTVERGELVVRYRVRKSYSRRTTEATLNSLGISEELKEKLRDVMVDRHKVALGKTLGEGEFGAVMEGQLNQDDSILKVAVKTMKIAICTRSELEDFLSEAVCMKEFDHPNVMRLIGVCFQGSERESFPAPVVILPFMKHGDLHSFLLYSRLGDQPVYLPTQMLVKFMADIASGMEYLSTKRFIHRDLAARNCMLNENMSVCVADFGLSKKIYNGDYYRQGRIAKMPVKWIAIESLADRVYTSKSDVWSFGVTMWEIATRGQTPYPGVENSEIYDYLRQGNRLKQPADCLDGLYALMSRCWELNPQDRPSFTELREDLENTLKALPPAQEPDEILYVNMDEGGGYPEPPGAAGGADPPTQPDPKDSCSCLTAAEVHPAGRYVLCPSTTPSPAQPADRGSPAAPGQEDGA

T5: EphB3(h) (human, UniProt P54753 581-998, limits assumed)
T5 sequence (looked up): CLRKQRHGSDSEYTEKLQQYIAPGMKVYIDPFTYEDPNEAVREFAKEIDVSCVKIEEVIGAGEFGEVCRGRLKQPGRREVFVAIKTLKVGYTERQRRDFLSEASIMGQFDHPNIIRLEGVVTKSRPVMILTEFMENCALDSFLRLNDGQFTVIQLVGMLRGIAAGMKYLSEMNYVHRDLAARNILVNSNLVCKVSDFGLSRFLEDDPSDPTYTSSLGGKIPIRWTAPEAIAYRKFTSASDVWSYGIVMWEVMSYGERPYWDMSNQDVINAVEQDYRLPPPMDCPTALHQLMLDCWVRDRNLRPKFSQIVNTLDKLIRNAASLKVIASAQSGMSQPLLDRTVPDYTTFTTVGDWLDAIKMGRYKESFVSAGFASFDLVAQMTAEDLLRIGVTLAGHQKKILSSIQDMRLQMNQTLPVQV


Legend:
Test in all cases: cell-based or functional assay
SGK2(h) = target: T1, SGK2(h)
Ret(V804M)(h) = target: T2, Ret(V804M)(h)
Met(D1246N)(h) = Met(D1246N)(h) (human, UniProt P08581-2 974-1408, limits assumed)
BrSK1(h) = target: T3, BrSK1(h)
MAPKAP-K3(h) = MAPKAP-K3(h) (human, UniProt Q16644 1-382, limits assumed)
Hck(h) = Hck(h) (human, UniProt P08631 251-518, limits assumed)
Met(h) = Met(h) (human, UniProt P08581 956-1390, limits assumed)
Ax1(h) = target: T4, Ax1(h)
EGFR(L861Q)(h) = EGFR(L861Q)(h) (human, UniProt P00533 696-1210, limits assumed)
EphB3(h) = target: T5, EphB3(h)
MAPK2(h) = MAPK2(h) (human, UniProt P28482 1-360)
Also: test concentration or dose not given here.

Binder	% activity (SGK2(h))	% activity (Ret(V804M)(h))	% activity (Met(D1246N)(h))	% activity (BrSK1(h))	% activity (MAPKAP-K3(h))	% activity (Hck(h))	% activity (Met(h))	% activity (Ax1(h))	% activity (EGFR(L861Q)(h))	% activity (EphB3(h))	% activity (MAPK2(h))
KAFAKLAARLYRKALARQLGVAA [MMI-0400]	98%	87%	31%	76%	7%	72%	62%	41%	22%	47%	93%
FAKLAARLYRKALARQLGVAA [MMI-0300]	56%	95%	82%	67%	3%	72%	65%	52%	25%	62%	98%
